According to patent publication US20260015423A1 (STAIDSON BIOPHARMA, published 2026):
Read-outs that look alike come from different tables or passages of the source.

Experiments:
[1] = target: T1, human PD-L1 (Sino biological, 10084-H08H) (human, UniProt Q9NZQ7 19-238); assay: BLI (Octet Red), antibody captured on anti-human Fc sensors, human PD-L1 as analyte
T1 construct: Bought recombinant protein used as analyte in BLI

[2] = target: T2, Europium-conjugated human PD-L1 (human, UniProt Q9NZQ7 19-238, limits assumed, Europium conjugate (site not stated)); assay: HTRF blocking assay: Europium-human PD-L1 with Alexa-647 human PD-1 as the blocked ligand, antibody titrated
T2 construct: also called Europium-human PD-L1; PD-L1 (HTRF donor protein)
T2 sequence (Q9NZQ7 19-238 limits assumed): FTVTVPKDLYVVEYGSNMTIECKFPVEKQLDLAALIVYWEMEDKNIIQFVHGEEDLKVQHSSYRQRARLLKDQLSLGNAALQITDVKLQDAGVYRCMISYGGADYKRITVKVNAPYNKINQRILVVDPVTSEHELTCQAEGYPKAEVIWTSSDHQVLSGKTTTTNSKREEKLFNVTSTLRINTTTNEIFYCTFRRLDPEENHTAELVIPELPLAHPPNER

[3] = target: T2, Europium-conjugated human PD-L1; assay: as above; remark: listed apart in the source
[4] = target: T2, Europium-conjugated human PD-L1; assay: HTRF competition assay: Europium-human PD-L1 with Alexa-647-conjugated Mab 3-16 as competitor, unlabelled Mab 3-16 titrated
[5] = target: T3, cynomolgus PD-L1 (Sino biological, 90251-C08H) (cynomolgus, UniProt G7PSE7 19-238); assay: BLI (Octet Red), antibody captured on anti-human Fc sensors, cynomolgus PD-L1 as analyte
T3 construct: Bought recombinant protein used as analyte in BLI; not shown: C-terminal polyhistidine tag of the bought product (Sino Biological 90251-C08H)
T3 sequence (G7PSE7 entry or part of it C08H C08H limits assumed): as the sequence (Q9NZQ7 19-238 limits assumed) above, with A33T, A34S, S62N, R68Q, Q82R, F173L, T185A, T192I, H215L counted along it

[6] = target: T2, Europium-conjugated human PD-L1; assay: HTRF competition assay: Europium-human PD-L1 with Alexa-647-conjugated Mab 3-16 as competitor, unlabelled Mab 3-16 titrated; remark: listed apart in the source
[7] = target: T1, human PD-L1 (Sino biological, …); assay: BLI (Octet Red), antibody captured on anti-human Fc sensors, human PD-L1 as analyte; Table 8 run, alongside humanized Hum-5/6/7
[8] = target: human PD-L1 on cells (Raji cell line expressing human PD-L1; human PBMCs) (human, UniProt Q9NZQ7 19-290); assay: cell-based or functional assay
human PD-L1 on cells (Raji cell line expressing human PD-L1; human PBMCs), sequence (Q9NZQ7 19-290): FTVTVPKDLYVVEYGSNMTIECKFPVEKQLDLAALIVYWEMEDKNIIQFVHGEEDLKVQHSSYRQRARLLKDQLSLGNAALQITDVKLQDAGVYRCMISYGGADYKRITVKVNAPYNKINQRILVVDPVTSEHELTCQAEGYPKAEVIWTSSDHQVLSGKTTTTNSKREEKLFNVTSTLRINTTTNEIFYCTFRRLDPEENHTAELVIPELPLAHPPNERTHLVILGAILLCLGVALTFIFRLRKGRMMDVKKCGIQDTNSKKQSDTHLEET

[9] = target: T1, human PD-L1 (Sino biological, …); assay: BLI (Octet Red), antibody captured on anti-human Fc sensors, human PD-L1 as analyte; remark: listed apart in the source
[10] = target: T2, Europium-conjugated human PD-L1; assay: HTRF competition assay: Europium-human PD-L1 with Alexa-647-conjugated Mab 3-16 as competitor, unlabelled antibody titrated

T1 sequence (Q9NZQ7 19-238 limits assumed): as the sequence (Q9NZQ7 19-238 limits assumed) above

| Kd [1] | koff [1] | kon [1] | IC50 (read off the curve) [2] | Kd [5] | koff [5] | kon [5] | koff [9] | kon [9] | IC50 (read off the curve) [10] | Kd [9] | Binder | other results |
| --- | --- | --- | --- | --- | --- | --- | --- | --- | --- | --- | --- | --- |
| 13 nM |  |  |  |  |  |  |  |  |  |  | chimeric anti-human PD-L1 antibody Mab 1-01 (antibody, human IgG1, kappa, V domains shown, Mouse variable domains on human IgG1 / kappa constant regions) VH: EVQLQQSGPELVKPGASVKMSCKASGYSFSGYFLNWVKQSHGKSLEWIGRINPSNDDTVYSQKFKDRATLSLDRSSGTVHMELRSLTSEDSAVYYCARFGHASWYFDVWGAGTTVTVSS VL: QIVLTQSPAIMSASPGEKVTMTCSARSSVIYMSWYQQKPGSSPRLLIYDTSHLASGVPVRFSGSGSGTFYSLIISRVEAEDAATYYCQQWSTYPLTFGAGTRLELNR |  |
| 16 nM |  |  |  |  |  |  |  |  |  |  | chimeric anti-human PD-L1 antibody Mab 1-02 (antibody, human IgG1, kappa, V domains shown, Mouse variable domains on human IgG1 / kappa constant regions) VH: EVQLQQSGPELVKPGASVKMSCKASGYSFSGYFLNWVKQSHGKSLEWIGRINPSNDDTVYSQKFKDRATLSLDRSSGTVHMELRSLTSEDSAVYYCARFGHASWYLDVWGAGTTVTVSS VL: QIVLTQSPAIMSASPGEKVTMTCSARSSIIYMSWYQQKTGSSPRLLIYDTSHLASGVPVRFSGSGSGTFFSLIISRMEAEDAATYYCQQWSTYPLTFGAGTRLELKR |  |
| 1.16 nM | 0.000408 s⁻¹ | 351000 M⁻¹ s⁻¹ | ~0.2 µg/mL |  |  |  |  |  |  |  | chimeric anti-human PD-L1 antibody Mab 3-18 (antibody, human IgG1, kappa, V domains shown, Mouse variable domains on human IgG1 / kappa constant regions) VH: EVHLQESGPSLVKPSQTLSLTCSVTGDSITSGYWNWIRQFPGNKLEYMGYVSYSGSTYYNPSLKSRISITRDTSKNQYYLQLSSVTTEDTATYYCANYYGDNWPFPLDYWGQGTSVIVSS VL: DIVMTQAAPSVPVTPGESVSISCRSNKSLLHSNGNTYLYWFLQRPGQSPQLLIYRMSNLASGVPDRFSGSGSGTAFTLTISRVEAEDVGVYYCMQHLEYPFTFGGGTKLEIER |  |
| 1.5 nM | 0.000626 s⁻¹ | 417000 M⁻¹ s⁻¹ | ~0.2 µg/mL |  |  |  |  |  |  |  | chimeric anti-human PD-L1 antibody Mab 3-17 (antibody, human IgG1, kappa, V domains shown, Mouse variable domains on human IgG1 / kappa constant regions) VH: EVHLQESGPSLVKPSQTLSLTCSVTGDSITSGYWNWIRQFPGNKLEYMGYVSYSGSTYYNPSLKSRISITRDTSKNQYYLQLSSVTTEDTATYYCANYYGDNWPFPLDYWGQGTSVIVSS VL: DIVMTQSPATLSVTPGDRVSLSCRASQSINGNLHWFQQKSHESPRLLIKYASQSISGIPSRFSGSGSGSDFTLRINSVEPEDVGVYYCQNGHGFPYTFGGGTKLEIKR |  |
| 0.279 nM | 0.000241 s⁻¹ | 864000 M⁻¹ s⁻¹ |  |  |  |  |  |  |  |  | chimeric anti-human PD-L1 antibody Mab 2-04 (antibody, human IgG1, kappa, V domains shown, Mouse variable domains on human IgG1 / kappa constant regions) VH: QVQLQQSGAELARPGASVKMSCKASGYTFTDYAMHWIKQRPGQGLEWIGFIIPSGDHTDYNQNFKDRATLTADKSSNTAYMQLTSLTPDDSAVYFCARGHGFHLYVMDYWGQGTSVTVSS VL: DIVMTQSPATLSVTPGDGVSLSCRASQSIADYLHWYQQKSHESPRLLIKYASQSISGIPSRFSGSGSGSDFTLSISSVEPEDVGVYFCQNGHSFPPTFGTGTKLELKR | IC50 (read off the curve) [3]: ~0.3 µg/mL |
| 0.146 nM | 6.17e-05 s⁻¹ | 423000 M⁻¹ s⁻¹ | ~0.2 µg/mL | 0.863 nM | 8.34e-05 s⁻¹ | 96700 M⁻¹ s⁻¹ | 1.19e-07 s⁻¹ | 286000 M⁻¹ s⁻¹ |  |  | chimeric anti-human PD-L1 antibody Mab 3-16 (antibody, human IgG1, kappa, V domains shown, Mouse variable domains on human IgG1 / kappa constant regions; also called parent antibody Mab 3-16) VH: DVQLVESGGGLVQPGGSRKLSCAASGFTFGGFGMHWVRQAPEKGLEWVAYITGDSSTIYYADRVRGRFTISRDNPRNILFLQMTSLGSEDTAMYYCVRGPPGTWAYWGQGTLVTVSA VL: DIVLTQSPASLAVSLGQRATFSCRASESVEFYGTTLVQWYQQRPGQPPKLLIYGASNVESGVPARFTGSGSGTDFSLNIHPVEEDDIAMYFCQQIRKVPWTFGGGTKLEIRR | IC50 (read off the curve) [4]: ~0.2 µg/mL; IC50 (read off the curve) [6]: ~0.2 µg/mL; Kd [7]: < 0.001 nM; EC50(nM), IL-2 production by SEB stimulated human PBMCs [8]: 5.41 nM |
|  |  |  |  | 0.915 nM | 8.65e-05 s⁻¹ | 94500 M⁻¹ s⁻¹ | 3.92e-05 s⁻¹ | 310000 M⁻¹ s⁻¹ | ~0.1 µg/mL | 0.126 nM | humanized anti-human PD-L1 antibody Hum-5 (antibody, human IgG1, kappa, V domains shown) VH: EVQLVESGGGLVQPGGSLRLSCAASGFTFGGFGMHWVRQAPGKGLEWVSYITGDSSTIYYADRVRGRFTISRDNAKNSLYLQMNSLRAEDTAVYYCVRGPPGTWAYWGQGTLVTVSS VL: EIVLTQSPATLSLSPGERATLSCRASESVEFYGTTLVQWYQQKPGQAPRLLIYGASNVESGIPARFSGSGSGTDFTLTISSLEPEDFAVYYCQQIRKVPWTFGQGTKVEIKR |  |
|  |  |  |  | 0.00208 nM | 1.33e-07 s⁻¹ | 63900 M⁻¹ s⁻¹ | < 1e-07 s⁻¹ | 292000 M⁻¹ s⁻¹ | ~0.1 µg/mL | < 0.001 nM | humanized anti-human PD-L1 antibody Hum-6 (antibody, human IgG1, kappa, V domains shown) VH: EVQLVESGGGLVQPGGSLRLSCAASGFTFGGFGMHWVRQAPGKGLEWVSYITGDSSTIYYADRVRGRFTISRDNAKNSLYLQMNSLRAEDTAVYYCVRGPPGTWAYWGQGTLVTVSS VL: EIVLTQSPATLSLSPGERATLSCRASESVEFYGTTLVQWYQQKPGQPPRLLIYGASNVESGIPARFSGSGSGTDFTLTISSLEPEDFAVYYCQQIRKVPWTFGQGTKVEIKR |  |
|  |  |  |  | ≤ 0.0011 nM | < 1e-07 s⁻¹ | 73100 M⁻¹ s⁻¹ | 1.28e-07 s⁻¹ | 302000 M⁻¹ s⁻¹ | ~0.1 µg/mL | < 0.001 nM | humanized anti-human PD-L1 antibody Hum-7 (antibody, human IgG1, kappa, V domains shown) VH: EVQLVESGGGLVQPGGSLRLSCAASGFTFGGFGMHWVRQAPGKGLEWVSYITGDSSTIYYADRVRGRFTISRDNAKNSLYLQMNSLRAEDTAVYYCVRGPPGTWAYWGQGTLVTVSS VL: EIVLTQSPATLSLSPGERATLSCRASESVEFYGTTLVQWYQQKPGQAPRLLIYGASNVESGIPARFSGSGSGTDFTLTISSLEPEDFAVYFCQQIRKVPWTFGQGTKVEIKR |  |
| 0.124 nM | 4.05e-05 s⁻¹ | 327000 M⁻¹ s⁻¹ | ~0.2 µg/mL |  |  |  |  |  |  |  | chimeric anti-human PD-L1 antibody Mab 3-14 (antibody, human IgG1, kappa, V domains shown, Mouse variable domains on human IgG1 / kappa constant regions) VH: QVQLQQSGAELVKPGTSVKLSCKASGYTFSMYYMFWVKQRPGQGLEWIGQINPSNGRTNFNEKFKSKATLTVDKSSTTAYMQLSSLTSEDSAVYYCTREISYDEFAYWGQGTLVTVSA VL: DVVMTQTPLSLPVSLGDQASISCRSSQSLVHSNGNTYLHWYLQKPGQSPKLLIYRVSNRFSGVPDRFSGSGSGTDFTLKISRVEAEDLGIYFCSQSAHLPYTFGGGTKLEIKR |  |
